Test results reported in article doi:10.1101/2024.06.25.600625 (bioRxiv, 2024).

B1: C-terminally FlAsH-labeled p23 (natural protein)
chain: MQPASAKWYDRRDYVFIEFCVEDSKDVNVNFEKSKLTFSCLGGSDNFKHLNEIDLFHCIDPNDSKHKRTDRSILCCLRKGESGQSWPRLTKERAKLNWLSVDFNNWKDWEDDSDEDMSNFDRFSEMMNNMGGDEDVDLPEVDGADDDSQDSDDEKMPDLE
modifications: FlAsH-EDT2 label on the C-terminal tetra-cysteine tag
B3: human Hsp90α Y38E,Y61F,Y197E (natural protein)
chain: not shown
B4: human Hsp90α Y38F,Y61E,Y197E (natural protein)
chain: not shown
B5: human Hsp90α Y38F,Y61F,Y197E (natural protein)
chain: not shown

Columns and labels:
Assay in all cases: fluorescence polarisation
human Hsp90α Y197F = human Hsp90α Y197F (human, UniProt P07900 1-732, Y197F)
[1] = target: human Hsp90α Y38F,Y61F,Y197F (human, UniProt P07900 1-732, Y38F | Y61F | Y197F)
human Hsp90α Y197E = human Hsp90α Y197E (human, UniProt P07900 1-732, Y197E)
[2] = target: B4
human Hsp90α Y61F = human Hsp90α Y61F (human, UniProt P07900 1-732, Y61F)
human Hsp90α Y38F = human Hsp90α Y38F (human, UniProt P07900 1-732, Y38F)
[3] = target: B3
human Hsp90α Y61E = human Hsp90α Y61E (human, UniProt P07900 1-732, Y61E)
[4] = target: B5
wild-type human Hsp90α = wild-type human Hsp90α (human, UniProt P07900 1-732)
[5] = target: B1
[6] = target: T1, N-terminally FlAsH-labeled CDC37 (UniProt Q16543 1-378, FlAsH-EDT2 label on the N-terminal tetra-cysteine tag)
T1 sequence: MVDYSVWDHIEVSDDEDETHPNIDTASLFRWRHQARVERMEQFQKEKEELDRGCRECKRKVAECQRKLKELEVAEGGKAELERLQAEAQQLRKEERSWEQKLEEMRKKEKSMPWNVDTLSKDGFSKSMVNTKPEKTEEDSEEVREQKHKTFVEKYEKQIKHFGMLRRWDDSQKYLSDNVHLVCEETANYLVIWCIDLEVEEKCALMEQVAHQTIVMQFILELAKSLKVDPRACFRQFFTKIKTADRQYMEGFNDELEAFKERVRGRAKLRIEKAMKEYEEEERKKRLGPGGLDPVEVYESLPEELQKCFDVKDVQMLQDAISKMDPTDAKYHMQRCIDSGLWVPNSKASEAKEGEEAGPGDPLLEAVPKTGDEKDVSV

Q: Does B1 bind (human Hsp90α Y197F)?
A: Result: binds

Q: Does B1 bind [1]?
A: Result: binds

Q: Does B1 bind (human Hsp90α Y197E)?
A: Result: binds

Q: Does B1 bind [2]?
A: Result: binds

Q: Does B1 bind (human Hsp90α Y61F)?
A: Result: binds

Q: Does B1 bind (human Hsp90α Y38F)?
A: Result: binds

Q: Does B1 bind [3]?
A: Result: binds

Q: Does B1 bind (human Hsp90α Y61E)?
A: Result: binds

Q: Does B1 bind [4]?
A: Result: binds

Q: Does B1 bind (wild-type human Hsp90α)?
A: Result: binds

B2: human Hsp90α Y38E (natural protein)
chain: not shown
Q: For B2, which “fold increase of KD (reference not named, wild type implied)” value [5] is on record?
A: The value was 3.5 fold.

Q: Which “fold increase of KD against all other Hsp90 variants” value [6] does the source give for B3 here?
A: The value was 2 fold.

Q: Which “fold increase of KD against all other Hsp90 variants” value [6] does the source give for B4 here?
A: Its value is 2 fold.

Q: How did the “fold increase of KD against all other Hsp90 variants” value [6] turn out when B5 was run?
A: The value was 2 fold.

B6: unlabeled p23 (natural protein)
chain: MQPASAKWYDRRDYVFIEFCVEDSKDVNVNFEKSKLTFSCLGGSDNFKHLNEIDLFHCIDPNDSKHKRTDRSILCCLRKGESGQSWPRLTKERAKLNWLSVDFNNWKDWEDDSDEDMSNFDRFSEMMNNMGGDEDVDLPEVDGADDDSQDSDDEKMPDLE
Q: Does B6 bind (wild-type human Hsp90α)?
A: Result: binds
